The chains are these.
B1: Gamma-crystallin C, residues 4 to 79; numbered along this chain, P07315 (parent)
chain: ITFYEDRAFQGRSYETTTDCPNLQPYFSRCNSIRVESGCWMLYERPNYQGQQYLLRRGEYPDYQQWMGLSDSIRSC

± gives the uncertainty stated by the source.

The variants in the data set derive from B1. The data set is described as follows: abundance fitness (aPCA) (normalised: wild type 0, dead -1); higher = more abundant; growth selection in yeast, the domain comes from the species named. The note with it: Homo sapiens.
For the variant T16D, the abundance fitness was -0.215 ± 0.066.

Take T16H: the abundance fitness worked out at 0.007 ± 0.096.

T16L: the abundance fitness amounted to 0.013 ± 0.086.

Turning to T16P, the abundance fitness is -0.342 ± 0.18.

On to T16G, for which the abundance fitness was -0.089 ± 0.058.

On to T16N, for which the abundance fitness is -0.116 ± 0.13.

Turning to E15S, the abundance fitness was 0.005 ± 0.081.

Take E15K: the abundance fitness came to 0.165 ± 0.33.

Consider E15P, for which the abundance fitness is -0.072 ± 0.14.

In the case of E15A, the abundance fitness is -0.113 ± 0.14.

With Q10V, the abundance fitness turned out to be 0.033 ± 0.073.

Take Q10H: the abundance fitness turned out to be 0.124 ± 0.24.

As to Q10K, the abundance fitness is 0.158 ± 0.11.

On to Q10F, for which the abundance fitness is -0.082 ± 0.14.

As to Q10N, the abundance fitness was -0.094 ± 0.13.

Q10T: the abundance fitness was found to be 0.034 ± 0.15.

On to C76R, for which the abundance fitness was -0.904 ± 0.25.

Consider C76I, for which the abundance fitness came out at 0.074 ± 0.083.

As for C76V, the abundance fitness amounted to 0.061 ± 0.073.

As to C76W, the abundance fitness was -0.545 ± 0.22.

Consider N47Q, for which the abundance fitness was -0.179 ± 0.078.

Regarding N47D, the abundance fitness was -0.032 ± 0.26.

As for N47A, the abundance fitness stood at 0.047 ± 0.084.

As for Q51T, the abundance fitness is -0.159 ± 0.12.

On to Q51A, for which the abundance fitness is -0.012 ± 0.098.

For the variant Q51S, the abundance fitness is -0.015 ± 0.22.

For Q51I, the abundance fitness was 0.078 ± 0.34.

Consider R12Q, for which the abundance fitness is 0.022 ± 0.083.

In the case of R12E, the abundance fitness is 0.066 ± 0.072.

As for R12V, the abundance fitness is -0.039 ± 0.056.

On to R12T, for which the abundance fitness was found to be 0.024 ± 0.082.

For the variant F27E, the abundance fitness was -0.794 ± 0.25.

Consider Y43Q, for which the abundance fitness was -0.86 ± 0.24.

On to Y43D, for which the abundance fitness is -0.817 ± 0.29.

Regarding Y43W, the abundance fitness was -0.139 ± 0.12.

For Y43C, the abundance fitness worked out at 0.111 ± 0.12.

In the case of G11Q, the abundance fitness is -0.421 ± 0.15.

For G11F, the abundance fitness was -0.919 ± 0.39.

For G11M, the abundance fitness was -0.504 ± 0.14.

Turning to G11L, the abundance fitness was -0.41 ± 0.072.

As to R45Y, the abundance fitness is 0.187 ± 0.27.

As to R45S, the abundance fitness was -0.127 ± 0.15.

Regarding R45F, the abundance fitness amounted to 0.032 ± 0.13.

For R45V, the abundance fitness is -0.15 ± 0.085.

With R45I, the abundance fitness was -0.16 ± 0.27.

With R45K, the abundance fitness amounted to 0.089 ± 0.12.

As for R45A, the abundance fitness is -0.025 ± 0.084.

Consider Y14H, for which the abundance fitness was -0.117 ± 0.12.

On to Y14N, for which the abundance fitness was -0.154 ± 0.23.

For Y14K, the abundance fitness was -0.163 ± 0.1.

As for Y14V, the abundance fitness is -0.216 ± 0.092.

Regarding Y14S, the abundance fitness is -0.042 ± 0.079.

For the variant R34E, the abundance fitness is -0.373 ± 0.12.

On to R34F, for which the abundance fitness is -0.113 ± 0.21.

Consider R34A, for which the abundance fitness came out at 0.026 ± 0.099.

G50M: the abundance fitness is -1.02 ± 0.38.

As for G50S, the abundance fitness is -0.244 ± 0.1.

On to G50I, for which the abundance fitness is -0.806 ± 0.37.

For G50D, the abundance fitness was -0.456 ± 0.2.

In the case of S13C, the abundance fitness was -0.058 ± 0.11.

For the variant S13L, the abundance fitness is -0.157 ± 0.091.

As to S13K, the abundance fitness was found to be 0.148 ± 0.17.

On to S13R, for which the abundance fitness came to 0.03 ± 0.066.

Turning to S13V, the abundance fitness is 0.058 ± 0.1.

Regarding S13G, the abundance fitness is -0.024 ± 0.066.

On to S13T, for which the abundance fitness was -0.043 ± 0.13.

Consider S13Q, for which the abundance fitness was determined as 0.061 ± 0.1.

Take A8E: the abundance fitness turned out to be 0.103 ± 0.11.

Take A8W: the abundance fitness was -0.069 ± 0.051.

For the variant A8M, the abundance fitness came out at 0.013 ± 0.12.

Take A8I: the abundance fitness came out at 0.001 ± 0.18.

Turning to R57W, the abundance fitness is -0.143 ± 0.11.

In the case of R57M, the abundance fitness worked out at 0.07 ± 0.29.

E36T: the abundance fitness was 0.11 ± 0.27.

E36N: the abundance fitness is -0.004 ± 0.16.

Consider E36K, for which the abundance fitness is -0.074 ± 0.48.

Regarding Q64E, the abundance fitness turned out to be 0.024 ± 0.083.

For the variant Q64H, the abundance fitness is 0.155 ± 0.19.

Consider Q64F, for which the abundance fitness was -0.09 ± 0.12.

As for Y4H, the abundance fitness was -0.364 ± 0.13.

As for Y4F, the abundance fitness was found to be 0.333 ± 0.4.

Take Y4P: the abundance fitness is -1.12 ± 0.34.

In the case of Y4L, the abundance fitness was -0.984 ± 0.16.

As for Q24E, the abundance fitness was found to be 0.125 ± 0.19.

As to Q24V, the abundance fitness came to 0.006 ± 0.071.

As to Q24K, the abundance fitness was -0.048 ± 0.12.

With Q24P, the abundance fitness is -0.308 ± 0.21.

As to Q24F, the abundance fitness is -0.14 ± 0.19.

As for F3P, the abundance fitness was -1 ± 0.36.

Turning to F3S, the abundance fitness is -1.01 ± 0.27.

For G68E, the abundance fitness was -0.062 ± 0.12.

As for G68R, the abundance fitness turned out to be 0.079 ± 0.043.

On to G68L, for which the abundance fitness was -0.027 ± 0.048.

G68P: the abundance fitness was -0.02 ± 0.069.

Turning to G68C, the abundance fitness is 0.117 ± 0.083.

On to G68Q, for which the abundance fitness is -0.018 ± 0.083.

Q65Y: the abundance fitness is 0.029 ± 0.13.

In the case of Q65A, the abundance fitness worked out at 0.006 ± 0.068.

Turning to Q65V, the abundance fitness is -0.041 ± 0.09.

On to Q65P, for which the abundance fitness stood at 0.027 ± 0.1.

Regarding Q65M, the abundance fitness amounted to 0.015 ± 0.24.

With Q65C, the abundance fitness came to 0 ± 0.11.

For Q65I, the abundance fitness was -0.133 ± 0.15.

Turning to D71Y, the abundance fitness was -0.027 ± 0.081.

With D71F, the abundance fitness was -0.132 ± 0.16.

Take D71V: the abundance fitness was -0.004 ± 0.059.

For D71Q, the abundance fitness was -0.121 ± 0.14.

In the case of D62N, the abundance fitness is -0.043 ± 0.1.

Take D62Q: the abundance fitness is -0.062 ± 0.082.

For D62V, the abundance fitness is -0.015 ± 0.06.

In the case of D62I, the abundance fitness is -0.26 ± 0.23.

Consider D62W, for which the abundance fitness is 0.059 ± 0.087.

Consider D62T, for which the abundance fitness is -0.055 ± 0.097.

Regarding E5P, the abundance fitness was -0.127 ± 0.13.

As to L42P, the abundance fitness is -0.864 ± 0.27.

Consider L42V, for which the abundance fitness was -0.011 ± 0.083.

Regarding L42R, the abundance fitness is -1.16 ± 0.33.

Take L42A: the abundance fitness was -0.102 ± 0.12.

As for L42N, the abundance fitness was -0.967 ± 0.46.

For the variant L42T, the abundance fitness was -0.095 ± 0.16.

With L42D, the abundance fitness is -0.857 ± 0.48.

With L42E, the abundance fitness was -1.16 ± 0.37.

L42Y: the abundance fitness was -0.728 ± 0.47.

Consider L42S, for which the abundance fitness was -0.287 ± 0.098.

As for S70H, the abundance fitness is -0.181 ± 0.15.

On to S70V, for which the abundance fitness turned out to be 0.075 ± 0.048.

As for S70Y, the abundance fitness came to 0.047 ± 0.096.

As for S70W, the abundance fitness was determined as 0.048 ± 0.068.

On to S70K, for which the abundance fitness was -0.114 ± 0.17.

Take S70P: the abundance fitness stood at 0.082 ± 0.084.

With S70N, the abundance fitness is -0.021 ± 0.11.

For the variant S70I, the abundance fitness is 0.09 ± 0.11.

Consider S70F, for which the abundance fitness is -0.053 ± 0.079.

Consider E59L, for which the abundance fitness was -0.084 ± 0.1.

Take E59M: the abundance fitness is -0.029 ± 0.12.

E59V: the abundance fitness is -0.053 ± 0.054.

In the case of Y53P, the abundance fitness is -0.947 ± 0.2.

On to Y53C, for which the abundance fitness was -0.113 ± 0.14.

For the variant Y53V, the abundance fitness was -0.025 ± 0.085.

As for Y53F, the abundance fitness is -0.015 ± 0.16.

For G38A, the abundance fitness was -0.008 ± 0.074.

For G38M, the abundance fitness was -0.141 ± 0.34.

On to G38H, for which the abundance fitness was -0.309 ± 0.27.

Regarding F9C, the abundance fitness turned out to be 0.12 ± 0.13.

Take F9V: the abundance fitness is -0.628 ± 0.24.

With F9Q, the abundance fitness is -0.207 ± 0.39.

For D6Y, the abundance fitness turned out to be 0.032 ± 0.23.

On to D6A, for which the abundance fitness is -0.103 ± 0.11.

D6P: the abundance fitness is -0.819 ± 0.45.

As for D6C, the abundance fitness amounted to 0.069 ± 0.19.

As for Y63S, the abundance fitness was -0.06 ± 0.083.

For Y63T, the abundance fitness is -0.113 ± 0.086.

Y63I: the abundance fitness is -0.028 ± 0.099.

Y63A: the abundance fitness is -0.115 ± 0.062.

In the case of Y63G, the abundance fitness is -0.041 ± 0.067.

Regarding Y63M, the abundance fitness is -0.12 ± 0.062.

In the case of Y63E, the abundance fitness is -0.146 ± 0.079.

Turning to T18S, the abundance fitness was determined as 0.044 ± 0.1.

For T18I, the abundance fitness was -0.031 ± 0.19.

As to T18D, the abundance fitness amounted to 0.169 ± 0.44.

T18N: the abundance fitness turned out to be 0.049 ± 0.12.

On to T18V, for which the abundance fitness is -0.03 ± 0.064.

With R29D, the abundance fitness was -0.239 ± 0.16.

With R29W, the abundance fitness is -0.053 ± 0.1.

Consider Y26V, for which the abundance fitness turned out to be 0.046 ± 0.088.

Y26D: the abundance fitness is -0.179 ± 0.23.

Take Y26K: the abundance fitness is -0.047 ± 0.13.

The values are drawn from the Human Domainome abundance scans (Beltran et al. 2025).
